What follows are sequences tested on MS2 coat protein (assay: apparent KD of MS2 coat protein; higher = weaker reporter binding). Conditions: Eterna round: R107; input ligand: none.
Outline: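 The designed RNA switches were transcribed on-chip from Illumina sequencing clusters. In 100 mM Tris-HCl pH 7.5, 80 mM KCl and 4 mM MgCl2, without or with constant ligand, they were titrated with SNAP-549-labelled MS2 coat protein from 0.7 or 1.5 nM to 3 µM in twofold steps. Apparent KD is the per-design median of normalised cluster binding-curve fits.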

| Sequence | apparent KD of MS2 coat protein [nM] |
| --- | --- |
| UCGCUCGCCGCAAGGCGAGCGAGUUGCGAUACCAGCCCGGAAACGGGCCCUUGGCAGCGCACAUGAGGAUCACCCAUGUCAUGUU [#1 Exclusion - Theophylline A Attempt #4 (HarryS)] | 25 |
| ACAUACAUGAGGAUCACCCAUGUCCAUGUUCGAGGACCGGUACGGCCGCCACUCGCGCGACAGCAUGAGGAACUUGAGGAUCACA [Exclusion Tryptophan A] | 63.8 |
| AAAAUAAAAGGUGCAAAAUCCUAAUGUGAAGGAGCGCACGAAAGUGCAGGUAGGUCGCACAUGAGGAUCACCCAUGUAGCACCAA [ArgEX 4 #SwitchBubble] | 146 |
| AAGACUGGACAUAAGUCCAGUCAACCUGAAGGAGCGGGUGGGUGCCCAGGUAGGUCGCGGGAACAUGAGGAUCACCCAUGUAUAA [ArgAS 5 #BothOrNeither #OpenEnded] | 25.8 |
| GUACAUGAGGAUCACCCAUGUAUAGUUGAAGGAGCGACCGGAGGGUCAGGUAGGUCGCAGCACAUGGCGUCAACCCGUGUAUGCC [#1 Exclusion - Arginine A Attempt #25 (Inspired by Pi)] | 17.3 |
| GAGACGUCGGGAAGGAGCGCAUCCAAACCACACAUGAGGAUCACCCAUGUAUAAAUAUGCAUGCAGGUAGGUCGCCCGGUGUCCA [Xegeisge] | 85.7 |
| ACUAGAGGUGGAAGGAGCGGGAGACAUGAGGAUCACCCAUGUGAAGUUUCGAGAGGAUCAUCCCAGGUAGGUCGCCAUGUCGAAA [vvbvmullin] | 27.4 |
| UACAUGAGGAUCACCCAUGUCUGAACUGAAGGAGCGCUAAAUAAGGCAGGUAGGUCGCGGAAUUUUGUGUGCAUAUGCAUAUGGG [9.L] | 36.4 |
| ACAUGAGGAUCACCCAUGUAUGACUAUCCUCGAGGACCGGUACGGCCGCCACUCGAAGGAGUGGCUCGCGAGUGCGCACUUGCGA [5' end] | 11.9 |
| GGAGCUACGUCGGCCGCCACUAGCGGGUAUUGCGUGUACAUGAGGAUCACCCAUGUAAUAUGGCCUAGGACCGGGACGUAGCUCC [Bison] | 16.7 |
| UGUAUGUGAUCUGAUACCAGCUUUGAUAACCUGAGGAUCACCCUGGUAAAGGCGAAAGCCAGCCCUUGGCAGCAGAUCGCAUACU | 49.1 |
| UGUAUGGACUGAAGGAGCGGUAGAUAACCUGAGGAUCACCCGGGUAAUAAAGGCGAAAGCCACCAGGUAGGUCGCAGUCCAUACU | 206 |
| GCUGCCAUACGAAGGAGCGCUGUUGCAAUGAGGCGAACAUGAGGAUCACCCAUGUGGCAGCAGCAGGUAGGUCGCGUAUGGCAGC [EAB #12] | 42.5 |
| AAAACCUCACCUGAGGAACACCCAGGUGAUACCAGCCUGGAAACAGGCCCUUGGCAGCACCAGGUCAUCAAAGAUGACCAAAUAA [TheoAX 25 #OpenEnded #AlternativeMS2] | 22.7 |
| ACAUGAGGGAUGGAUACCAGCGACAUGAGGAUCACCCAUGUAUGAGGAUCAGCCAUGUUAUGCCCUUGGCAGCCACGAACAUGAG [ACFMULLIN] | 35.6 |
| UGUAUGGACUGAAGGAGCGGGUAAAUAACUUGAGGAUCACCCAGGUAAAAGGCGAAAGCCACCCAGGUAGGUCGCAGUCCAUACU | 21.1 |
| GAGGACAUGAGGAUCACCCAUGUAAAUGAUACCAGUUGAGAGAGAGGCCCUUGGCAGCGUAAACAUGACAGCGAGCGAGAGUGCG [ss-theoA-0] | 13.1 |
| CACGGACGAGUGGAUCACCCUUGUAAUAACCGAGGACCGGUACGGCCGCCACUCGAAAACCGUGACCUGUACGAAAAGUGCAGGA | 26.5 |
| CCCAGUUAUAUCAAAGGAAUUAUACUCGAAGGAGCGUCAUAGUAGGCAGGUAGGUCGCGAGACAUGAGGAUCACCCAUGUAGAGA [pxpmullin] | 51.6 |
| GGAUAGGACAGAAGGAGCGUGAGAUGCAAAGCAUCAUUCCUCACAUGAGGAUCACCCAUGUCACAGGUAGGUCGCUGUCCUAUCG [ArgBX 4] | 95.1 |

Same assay, conditions: Eterna round: R107; input ligand: theophylline 20 uM

| Sequence | apparent KD of MS2 coat protein [nM] |
| --- | --- |
| UUUUACAUGAGGAUCACCCAUGUGCGGCGCCGAGGACCGGUACGGCCGCCACUCGCAUGGGCAUGCCGCGAUAUCAUUCCUGAAC [theeternabot_sameState_MS2_Trp_A_43] | 249 |
| UCGCUCGCCGCAAGGCGAGCGAGUUGCGAUACCAGCCCGGAAACGGGCCCUUGGCAGCGCACAUGAGGAUCACCCAUGUCAUGUU [#1 Exclusion - Theophylline A Attempt #4 (HarryS)] | 31.3 |
| ACAUACAUGAGGAUCACCCAUGUCCAUGUUCGAGGACCGGUACGGCCGCCACUCGCGCGACAGCAUGAGGAACUUGAGGAUCACA [Exclusion Tryptophan A] | 104 |
| AAAAUAAAAGGUGCAAAAUCCUAAUGUGAAGGAGCGCACGAAAGUGCAGGUAGGUCGCACAUGAGGAUCACCCAUGUAGCACCAA [ArgEX 4 #SwitchBubble] | 115 |
| AAUUAUCAGUCGGCCGCCACUGACACAUGAGGAUCACCCAUGUAACAUGGGUAAAAUUAACUGAACAGGACCGGGACAAAGGCUA [JR_ExcTryptoB_Sub008] | 671 |
| CAUUAAGUAACUGAUACCAGUGUACUGACAUGAGGAUCACCCAUGUUGGGUUUUGUUGUACACCCUUGGCAGCAGAAUCUUAAUG [AstrosExyTheB#3] | 70.2 |
| AAGACUGGACAUAAGUCCAGUCAACCUGAAGGAGCGGGUGGGUGCCCAGGUAGGUCGCGGGAACAUGAGGAUCACCCAUGUAUAA [ArgAS 5 #BothOrNeither #OpenEnded] | 16.9 |
| AGGAGACAUGAGGAUCACCCAUGUCCAGAUACCAGAAUGUCUUUGUUCCCUUGGCAGCUGUGGAAAUCUGACCUGCCUCGGUCUG [theeternabot_sameState_MS2_Theo_A_31] | 17.9 |
| AAGACAUGAGGAUCACCCAUGUCGUCUACACGAGGACCGGUACGGCCGCCACUCGUUUGCCAAUGAGCGCAUGCGGCCUGGGUAU [Exclusion Tryp A GF3] | 17.9 |
| AAAAGACAUGAGGAUCACCCAUGUAGAGAUACCAGAUGCAUGGACAUCCCUUGGCAGCUCGUCACUUUCUAUAUUUUCCAGACGC [theeternabot_sameState_MS2_Theo_A_37] | 59.1 |
| GGUGGCUGGAUCGAUACCAGCCACCACCGAUAGACCACAUGAGGAUCACCCAUGUUGGGUGGCCCUUGGCAGCGGUCCGGCUGCC [#1 Same State - Theophylline B Attempt #7 (HarryS)] | 679 |
| GUACAUGAGGAUCACCCAUGUAUAGUUGAAGGAGCGACCGGAGGGUCAGGUAGGUCGCAGCACAUGGCGUCAACCCGUGUAUGCC [#1 Exclusion - Arginine A Attempt #25 (Inspired by Pi)] | 22.7 |
| GAGACGUCGGGAAGGAGCGCAUCCAAACCACACAUGAGGAUCACCCAUGUAUAAAUAUGCAUGCAGGUAGGUCGCCCGGUGUCCA [Xegeisge] | 120 |
| ACUAGAGGUGGAAGGAGCGGGAGACAUGAGGAUCACCCAUGUGAAGUUUCGAGAGGAUCAUCCCAGGUAGGUCGCCAUGUCGAAA [vvbvmullin] | 46.9 |
| UAAAACAUGAGGAUCACCCAUGUAAUUGAUACCAGAGUGAUGAUCCUCCCUUGGCAGCAAAUAACGCAUUGGAAACAAUGCGAAA [Mat - Same State Theophlline A - Mod of Eli - D26] | 91.6 |
| CUACAUUUGUAGAAACCGGUCAACAAUAAUCGAGGACCGGUACGGCCGCCACUCGUAUAAUUUUAUACAUGAGGAUCACCCAUGU [Tryptophan A 3] | 16.5 |
| UACAUGAGGAUCACCCAUGUCUGAACUGAAGGAGCGCUAAAUAAGGCAGGUAGGUCGCGGAAUUUUGUGUGCAUAUGCAUAUGGG [9.L] | 39.4 |
| GAUCUUGCGGGCGCCCGCAAGGUUGCGGAUACCAGCGAGAUUAAUCGCCCUUGGCAGCCGAACAUGAGGAUCACCCAUGUCGGAC [Same State - Theophylline A Attempt #2 (HarryS)] | 11.5 |
| ACAUGAGGAUCACCCAUGUAUGACUAUCCUCGAGGACCGGUACGGCCGCCACUCGAAGGAGUGGCUCGCGAGUGCGCACUUGCGA [5' end] | 19.2 |

Source: the supplement of paper PMC9170038
